± gives the uncertainty stated by the source.
Test: protein stability index of a GFP-peptide fusion (yeast GPS) (PSI 1-4); higher = more stable; sorted into four equal gates, so the index is relative within each strain
Procedure, shortened: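 For each peptide, the protein stability index sums the read frequency in every gate after multiplying it by the gate number. Read frequencies came from plasmids that were PCR-amplified from each gate and Illumina-sequenced, with reads assigned to strains by barcodes. The gates were four equal bins of GFP/Cherry fluorescence ratio applied to mid-log yeast in leucine-free medium carrying a pooled library of tiled 17-residue yeast protein peptides fused downstream of GFP on a Cherry-expressing plasmid.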

Sequence	protein stability index (doa10∆)	protein stability index (pdr5∆)	protein stability index (san1∆)	protein stability index (ubr1∆)
PNNETSVLSSKPGSKPE [SIR3]	3.12 ± 0.11	3.04 ± 0.12	3.06 ± 0.082	2.96 ± 0.064
PNRITLTDHRKETWLHE [SRB8]	2.8 ± 0.082	3.03 ± 0.086	3.17 ± 0.07	3.22 ± 0.068
PNTTKTKLRAFVYNKVN [YGR119C/NUP57]	2.47 ± 0.21	–	–	–
PNVDLVTALEVLSLGRP [RGR1]	1.95 ± 0.11	2.1 ± 0.063	2.47 ± 0.1	2.21 ± 0.058
PPEEFSNTIDELSTDII [SRB7]	3.1 ± 0.057	3.16 ± 0.068	3.26 ± 0.069	3.05 ± 0.06
PPPPPPSNFEINAEEIV [PRP8]	2.6 ± 0.038	3.04 ± 0.046	2.72 ± 0.039	2.9 ± 0.038
PPTDTNVEESVSKADIL [POP5]	3.21 ± 0.12	3.18 ± 0.12	2.79 ± 0.069	3.05 ± 0.095
PQAVTITSIMDDLALPY [ITC1]	2.85 ± 0.077	2.98 ± 0.062	2.72 ± 0.059	3.02 ± 0.046
PQDYVLERVKRIMEKSV [YML031W/NDC1]	2.6 ± 0.059	2.66 ± 0.045	2.55 ± 0.087	2.12 ± 0.041
PQKSSSKGFVFNSVQKK [YAR002W/NUP60]	1.65 ± 0.088	1.4 ± 0.1	1.83 ± 0.14	1.18 ± 0.13
PQMQCALQNLSQLPITP [YGL172W/NUP49]	2.06 ± 0.087	2.23 ± 0.098	2.12 ± 0.1	2.23 ± 0.068
PQNEKPPAYALLGSCQT [RPC25]	2.83 ± 0.26	2.76 ± 0.17	–	2.45 ± 0.13
PQQQQQHLQFNGSSDAS [YDL088C/ASM4]	2.41 ± 0.042	2.22 ± 0.048	2.04 ± 0.066	2.27 ± 0.03
PQYNMNMGMNNMNNGGK [PGD1]	3.42 ± 0.21	3.48 ± 0.19	3.16 ± 0.11	3.24 ± 0.083
PRFNRDNKVSPAAAAKK [RPS26B]	2.41 ± 0.12	2.5 ± 0.21	2.61 ± 0.11	2.76 ± 0.12
PSADGADKKDDSESNSE [ITC1]	2.83 ± 0.083	3.11 ± 0.065	3.34 ± 0.068	2.96 ± 0.068
PSAEIREAYIENFAKGE [SWP82]	2.39 ± 0.073	2.63 ± 0.084	2.58 ± 0.1	2.4 ± 0.064
PSASLKLHHDLKLCLGD [YMR129W/POM152]	3.06 ± 0.073	3.09 ± 0.07	2.92 ± 0.083	3.03 ± 0.054
PSDVNIDVMKSQIIPLM [SNU114]	2.15 ± 0.1	1.82 ± 0.053	2.65 ± 0.07	1.82 ± 0.058
PSENDVFYRMQQLRRAL [RPO31]	2.03 ± 0.056	1.94 ± 0.046	2.5 ± 0.1	2.14 ± 0.067
PSFGKRHNKSHTLCNRC [RPL37A]	2.54 ± 0.1	2.84 ± 0.08	2.97 ± 0.12	2.68 ± 0.21
PSGRTRGRSVMKESVVE [ESC2]	–	–	2.99 ± 0.19	3.67 ± 0.22
PSIIFIDEVDSIATKRF [RPT3]	3.05 ± 0.096	3.1 ± 0.067	2.96 ± 0.046	3.19 ± 0.068
PSKLVITKLHLDKDRKA [RPL26A]	1.73 ± 0.18	1.75 ± 0.086	1.75 ± 0.28	1.21 ± 0.099
PSLEKSSFTFGSTTIEK [YLR335W/NUP2]	2.17 ± 0.058	2.65 ± 0.086	1.66 ± 0.15	2.01 ± 0.056
PSLNPIPHFIDNNSSLN [PRP8]	2.3 ± 0.063	2.52 ± 0.05	2.78 ± 0.055	2.4 ± 0.045
PSMMAPLRDNGLLDESP [YML031W/NDC1]	–	2.79 ± 0.29	–	3.35 ± 0.11

Sequence	protein stability index (doa10∆)	protein stability index (pdr5∆)	protein stability index (san1∆)	protein stability index (ubr1∆)
PSPISHVAEIRSALEKG [RPB2]	1.68 ± 0.076	1.93 ± 0.066	1.68 ± 0.09	1.76 ± 0.053
PSPKKVAIDQDKITLHD [SIR4]	2.36 ± 0.064	2.53 ± 0.064	2.27 ± 0.079	2.88 ± 0.05
PSQGMVVEISNGNTSSK [FAS1]	3.08 ± 0.057	3.27 ± 0.051	3.2 ± 0.048	3.29 ± 0.056
PSSMATLLKNLRKKLNF [YJR042W/NUP85]	2.91 ± 0.078	2.73 ± 0.075	2.91 ± 0.079	2.89 ± 0.066
PSTNAQNVNVPSAFNFT [YOR098C/NUP1]	2.6 ± 0.046	2.73 ± 0.054	2.67 ± 0.041	2.75 ± 0.045
PSYYYYVDPETTYTYQQ [ROX3]	2.93 ± 0.075	3.09 ± 0.079	2.85 ± 0.053	3.16 ± 0.07
PTGGKAKLSEGTSFRRK [RPS27A]	3.4 ± 0.081	3.33 ± 0.11	3.33 ± 0.065	3.33 ± 0.059
PTGKEEGDGAKAAISFG [YJL041W/NSP1]	3.37 ± 0.11	3.04 ± 0.1	3.35 ± 0.1	3.38 ± 0.069
PTLGERLDNLQDIKKAK [DSN1]	1.54 ± 0.082	1.25 ± 0.041	2.71 ± 0.085	2.86 ± 0.064
PTMYTRLCICSGMLFEM [SIN4]	1.29 ± 0.041	1.28 ± 0.041	1.39 ± 0.08	1.44 ± 0.033
PTTTTGGLFGNSAQNNS [YGR119C/NUP57]	3.11 ± 0.071	3.18 ± 0.097	3 ± 0.062	3.24 ± 0.054
PVDVDFNLDLDDIVSHQ [REC8]	–	3.4 ± 0.12	–	–
PVPESAGKADTSIRLEG [SRB4]	2.96 ± 0.062	3.19 ± 0.079	2.95 ± 0.055	3.06 ± 0.045
PVSLLNSQLVGKPHFSL [PCI8]	2.1 ± 0.084	2.37 ± 0.074	1.88 ± 0.21	2.21 ± 0.052
PVSPLDIYSDEASAQKK [RPS2]	2.74 ± 0.095	2.93 ± 0.093	3.02 ± 0.075	3.02 ± 0.06
PVVINLDAKNKVFVPPK [RPO31]	2.93 ± 0.12	3.13 ± 0.13	3.33 ± 0.11	2.95 ± 0.15
PWGDYLQLETPAEVGRA [BRR2]	1.25 ± 0.062	1.8 ± 0.09	1.47 ± 0.088	1.19 ± 0.049
PYAQKPLQGIFHNAVFN [QCR8]	2.75 ± 0.057	2.52 ± 0.046	2.35 ± 0.045	2.57 ± 0.038
PYDSNNSNTNLNSLSPQ [SWI1]	2.96 ± 0.049	2.87 ± 0.051	2.76 ± 0.054	2.79 ± 0.04
PYLLPYILEAEAAAKEK [QCR7]	1.39 ± 0.07	1.26 ± 0.062	1.5 ± 0.11	1.19 ± 0.053
PYPGSPMHSIMPNSSLQ [DSN1]	2.85 ± 0.091	2.88 ± 0.052	2.63 ± 0.057	2.83 ± 0.034
PYPKSRYNRAVPDSKIR [RPL10]	3.03 ± 0.049	3.19 ± 0.052	3.05 ± 0.043	3.04 ± 0.048
QAIAKNNPQVVNAITVA [SNF5]	1.85 ± 0.039	2.02 ± 0.043	1.63 ± 0.05	1.61 ± 0.036
QAINLGQVVLTPLTFAL [RPL14A]	1.53 ± 0.065	1.43 ± 0.049	1.25 ± 0.09	1.35 ± 0.067
QAQAQAHAQHQPSQQPQ [GAL11]	2.967 ± 0.022	2.972 ± 0.019	2.974 ± 0.022	3.028 ± 0.018
QARMMQQQSADHDDSTD [NSL1]	2.76 ± 0.051	2.74 ± 0.058	2.62 ± 0.052	2.76 ± 0.039
QAVETVGQAGRPKKITG [RPN1]	1.99 ± 0.06	2.74 ± 0.095	2.31 ± 0.12	2.45 ± 0.056

Sequence	protein stability index (doa10∆)	protein stability index (pdr5∆)	protein stability index (san1∆)	protein stability index (ubr1∆)
QDHFHRLNYLYQISAYQ [RPR2]	2 ± 0.041	2.43 ± 0.04	2.42 ± 0.044	2.43 ± 0.026
QDKSKKIMNVTTDSLTK [YMR129W/POM152]	3.25 ± 0.064	2.97 ± 0.06	3.1 ± 0.034	3.21 ± 0.044
QDNKQLYQIWIVMVWLK [YDL116W/NUP84]	2.62 ± 0.058	2.62 ± 0.049	3.02 ± 0.065	2.78 ± 0.031
QDRIQDVKLVLASNFDN [MED1]	2.56 ± 0.057	2.67 ± 0.06	1.88 ± 0.08	2.21 ± 0.036
QDSTSENVKIINYLLTL [RPN2]	3.42 ± 0.074	3.1 ± 0.079	3.16 ± 0.071	2.9 ± 0.12
QEASQVTFIFGELKRGN [MED11]	2.07 ± 0.062	2.75 ± 0.052	2.75 ± 0.066	2.6 ± 0.043
QEEEGELEHLTKKSKLE [DSN1]	3.02 ± 0.053	3.17 ± 0.056	3.14 ± 0.043	3.18 ± 0.043
QELELPGEFVTAIAHSI [SNF5]	2.36 ± 0.049	2.37 ± 0.038	2.38 ± 0.038	2.4 ± 0.043
QENSSKIITLDLSNYAE [SMC1]	3.13 ± 0.1	3.34 ± 0.053	3.1 ± 0.054	3.13 ± 0.044
QEPELSLDQGDAEEDSQ [SMC4]	3.45 ± 0.16	–	–	3.02 ± 0.14
QEQYQTNTFEGSGNNNE [SNU114]	–	3.59 ± 0.23	3.3 ± 0.13	–
QFLEQGLSIHPTQITQY [SRP68]	2.17 ± 0.058	2.22 ± 0.076	2.27 ± 0.062	2.17 ± 0.067
QFNEFIQIMANIDQEGS [PGD1]	2.29 ± 0.073	2.37 ± 0.067	2.33 ± 0.072	2.54 ± 0.049
QFQKARNNVMLLIATNL [SRB8]	1.74 ± 0.11	1.81 ± 0.1	2.24 ± 0.13	1.93 ± 0.071
QFVPELKEFTAKLRKEL [FAS2]	1.53 ± 0.061	1.61 ± 0.043	1.53 ± 0.1	1.57 ± 0.026
QGVYGAVYETLISRMIF [BRR2]	2.46 ± 0.11	1.81 ± 0.093	1.36 ± 0.15	1.67 ± 0.045
QHIKVFKLDKDTSNWEL [YGL100W/SEH1]	3.43 ± 0.15	3.15 ± 0.12	3.2 ± 0.16	3.62 ± 0.29
QHQEEPLLSLDVTPISM [RPN4]	2.77 ± 0.2	2.97 ± 0.16	3.07 ± 0.086	2.65 ± 0.23
QHYLDTATAPRLFDKLK [QCR6]	2.96 ± 0.055	3.04 ± 0.045	2.84 ± 0.061	2.76 ± 0.091
QIAFDLVSSASQQLLEI [RPN2]	2.22 ± 0.068	2.17 ± 0.063	1.66 ± 0.11	1.69 ± 0.072
QIFCVFSGKGVHKLRHY [GRR1]	2.67 ± 0.068	2.88 ± 0.061	3.09 ± 0.066	2.76 ± 0.053
QIFKVAGENAPSIVFID [RPT2]	1.84 ± 0.098	1.2 ± 0.059	1.31 ± 0.13	1.33 ± 0.066
QILENYNALFQQNIKFR [YJL039C/NUP192]	2.73 ± 0.075	2.79 ± 0.065	2.86 ± 0.036	3.04 ± 0.054
QIPTVSSPLGFEETKLS [SIR4]	3.06 ± 0.12	3.05 ± 0.17	2.63 ± 0.14	2.9 ± 0.081
QIQLAESELSLLEETQA [SMC4]	2.69 ± 0.066	3.25 ± 0.063	2.71 ± 0.095	3.05 ± 0.052
QIRSADEPMTTFYKCVN [RPC11]	2.26 ± 0.2	2.54 ± 0.078	2.2 ± 0.14	2.77 ± 0.085

Reference: the supplement of paper PMC9732359
